The values below come from paper PMC2949602, “Genome-wide search identifies Ccnd2 as a direct transcriptional target of Elf5 in mouse mammary gland”.

Positions count from the first letter of the chain named.

Data set [1] addresses T1, GST-Elf5 MT2 (R219A) (mouse, UniProt Q8VDK3 1-253, R219A).
T1 sequence: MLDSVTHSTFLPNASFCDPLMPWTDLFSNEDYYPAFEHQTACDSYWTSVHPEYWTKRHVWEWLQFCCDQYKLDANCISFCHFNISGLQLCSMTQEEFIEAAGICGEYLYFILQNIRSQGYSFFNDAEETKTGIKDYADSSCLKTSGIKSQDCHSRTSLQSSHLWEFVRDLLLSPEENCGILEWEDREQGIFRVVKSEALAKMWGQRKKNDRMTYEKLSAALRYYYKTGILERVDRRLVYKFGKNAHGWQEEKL
Put plainly: EMSA; 20 mM HEPES pH 7.9, 75 mM KCl, 2.5 mM MgCl2, 1 mM EDTA, 0.5 mM DTT, 10% glycerol, 1 ug poly(dA-dT), room temperature; 5% nondenaturing PAGE. To be noted: protein: recombinant; label: 32P (Klenow fill-in with dCTP); 5' overhangs 3 nt each end as annealed, filled in by Klenow.

Data set [2] addresses T2, GST-Elf5 MT1 (K216A) (mouse, UniProt Q8VDK3 1-253, K216A).
T2 sequence: T1 sequence with K216A, A219R
The description is as above. The settings on record: protein: recombinant; label: 32P (Klenow fill-in with dCTP); 5' overhangs 3 nt each end as annealed, filled in by Klenow.

B1: Cyclin D2 upstream region 1 oligo (dsDNA)
DNA 1: CAGATTAGAAAGGAAAAGGATTACAGTAGT
DNA 2: GTGACTACTGTAATCCTTTTCCTTTCTAAT
Turning to B1, the binding result in data set [1] and in data set [2] was “no binding” in each case.

B2: Cyclin D2 upstream region 2 oligo (dsDNA)
DNA 1: GAGCCAGCAGGATGCTTGACATTCCAGCTGCTGG
DNA 2: AGGCCAGCAGCTGGAATGTCAAGCATCCTGCTGG
Consider B2, for which the binding result in data set [1] and in data set [2] was “no binding” throughout.
